± gives the standard error. Variants at the floor of the assay were thinned out.
B1: glmS ribozyme (parent)
chain: AUAAAAGCGCCAGAACUACAGAAAUGUAGUUGACGAGGAGGAGGUUUAUCGAAUUUUCGGCGGAUGCCUCCAAA

What was measured:
Details in all cases: with glucosamine-6-phosphate
glucosamine-6-phosphate [1] = variants of: B1; assay: self-cleavage kobs at 160 uM GlcN6P; higher = faster cleavage; RNA array
How it was run: (§1)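 Weighted Michaelis–Menten fits across concentrations supplied kcat and KM, based on kobs from one- or two-exponential decay fits to normalised per-tile medians. The data came from barcoded ribozyme variants transcribed in situ by E. coli RNA polymerase on sequenced MiSeq chips and tracked at 37 °C by a hybridised Cy3 probe. Glucosamine-6-phosphate (40 μM to 10 mM) in HEPES/KCl/Mg(OAc)2 buffer was flowed in.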

glucosamine-6-phosphate [2] = variants of: B1; assay: self-cleavage kobs at 640 uM GlcN6P; higher = faster cleavage; RNA array
How it was run: as §1

glucosamine-6-phosphate [3] = variants of: B1; assay: self-cleavage kobs at 2500 uM GlcN6P; higher = faster cleavage; RNA array
How it was run: as §1

glucosamine-6-phosphate [4] = variants of: B1; assay: self-cleavage kobs at 10000 uM GlcN6P; higher = faster cleavage; RNA array
How it was run: as §1

Variant | self-cleavage kobs at 160 uM GlcN6P (glucosamine-6-phosphate [1]) [s⁻¹] | self-cleavage kobs at 640 uM GlcN6P (glucosamine-6-phosphate [2]) [s⁻¹] | self-cleavage kobs at 2500 uM GlcN6P (glucosamine-6-phosphate [3]) [s⁻¹] | self-cleavage kobs at 10000 uM GlcN6P (glucosamine-6-phosphate [4]) [s⁻¹]
U47C G59A | < 1e-05 |  |  | 
G51A A52U | < 1e-05 |  |  | 
G43U G60U U69G | < 1e-05 | < 1e-05 |  | 
A33U C58U | < 1e-05 | < 1e-05 |  | 
A42U A52C C67A | < 1e-05 |  |  | 
A42U C61A | < 1e-05 | < 1e-05 | < 1e-05 | < 1e-05
C34U C70G | 0.000827 ± 0.0004 |  |  | 
U31G G44U G51U | < 1e-05 |  |  | 
C16U G40C C50A C67G | < 1e-05 | < 1e-05 |  | 
G38C G51U U57C | < 1e-05 |  | < 1e-05 | 
C10U U49G | < 1e-05 | < 1e-05 |  | 
G51U U69G C71A | 0.00015 ± 5.2e-05 | 7.38e-05 ± 2.2e-05 | 7.85e-05 ± 3.7e-05 | 
G7A A33C A42C A48C | < 1e-05 |  | < 1e-05 | 
G29U G37C A42C U46A | < 1e-05 | < 1e-05 |  | 
C10U G40U G66U C67U | < 1e-05 |  | < 1e-05 | 
C8A A42U | < 1e-05 | < 1e-05 |  | 
A6U G43C U57G C67U | < 1e-05 |  | < 1e-05 | < 1e-05
C50G A52U U56G A64U | < 1e-05 | < 1e-05 | < 1e-05 | 
G41C G43A G44C C68U C71U | < 1e-05 |  | < 1e-05 | 
G13A A64C | < 1e-05 | < 1e-05 | < 1e-05 | < 1e-05

Variant | self-cleavage kobs at 160 uM GlcN6P (glucosamine-6-phosphate [1]) [s⁻¹] | self-cleavage kobs at 640 uM GlcN6P (glucosamine-6-phosphate [2]) [s⁻¹] | self-cleavage kobs at 2500 uM GlcN6P (glucosamine-6-phosphate [3]) [s⁻¹] | self-cleavage kobs at 10000 uM GlcN6P (glucosamine-6-phosphate [4]) [s⁻¹]
A12U C16U U54A | 0.00397 ± 0.00072 | 0.00766 ± 0.0025 |  | 
A53G G60A G66C | < 1e-05 |  |  | 
G40C U56A | 0.000154 ± 3.3e-05 | 0.000308 ± 6.3e-05 | 0.00115 ± 0.00026 | 
G43U G59U G63U C68A | < 1e-05 | < 1e-05 | < 1e-05 | 
G41U U46G C61A | < 1e-05 | < 1e-05 | < 1e-05 | 
C50G G60A A64G | 8.18e-05 ± 2.1e-05 | 6.58e-05 ± 2.3e-05 | 0.000134 ± 5.2e-05 | 
C11U C70G | 0.000313 ± 0.00014 | 9e-05 ± 9.9e-06 | 0.000104 ± 8.7e-06 | 6.56e-05 ± 5.5e-06
C10G G38U G41U U49C C50U C70A | < 1e-05 |  |  | < 1e-05
C8U G37C A39G | < 1e-05 | < 1e-05 | < 1e-05 | < 1e-05
A12U G41C A52U G59A G60U | < 1e-05 |  | < 1e-05 | 
A53G A64U U69G | 0.000191 ± 6.9e-05 | 0.000772 ± 0.00022 | 0.000517 ± 0.00019 | 
A6G C67U C71U | < 1e-05 |  |  | 
G41A A48U A64U C71A | < 1e-05 |  | < 1e-05 | 
G35A G38A A39G G63C C67U | < 1e-05 |  |  | 
U31A G38A A42C | < 1e-05 | < 1e-05 |  | 
G38U G62C | < 1e-05 | < 1e-05 |  | 
U31A A64U | < 1e-05 |  |  | 4.44e-05 ± 1.1e-05
G13U G29A A52C | < 1e-05 | < 1e-05 | < 1e-05 | 
G37C G51U | < 1e-05 |  |  | < 1e-05
G35U G37C U45C | < 1e-05 |  | < 1e-05 | 

Variant | self-cleavage kobs at 160 uM GlcN6P (glucosamine-6-phosphate [1]) [s⁻¹] | self-cleavage kobs at 640 uM GlcN6P (glucosamine-6-phosphate [2]) [s⁻¹] | self-cleavage kobs at 2500 uM GlcN6P (glucosamine-6-phosphate [3]) [s⁻¹] | self-cleavage kobs at 10000 uM GlcN6P (glucosamine-6-phosphate [4]) [s⁻¹]
G7C A14U C16G U30A U56A C67G | < 1e-05 | < 1e-05 |  | 
G13A G40C C70G | < 1e-05 | < 1e-05 | < 1e-05 | < 1e-05
C67U C68U C71G | 7.37e-05 ± 2e-05 |  |  | 
A6C C34U U56C | < 1e-05 |  |  | 
U30C G43C C68G | 7.51e-05 ± 2.2e-05 |  |  | 
C8G A39U U69A | < 1e-05 |  |  | 
U30C U56C A64U | < 1e-05 | < 1e-05 |  | 
C8G G66A | < 1e-05 | < 1e-05 | < 1e-05 | 
G35C U65C G66A | < 1e-05 | < 1e-05 | < 1e-05 | 
G35C C70U | < 1e-05 | < 1e-05 |  | < 1e-05
G32A U49C C61A | < 1e-05 |  |  | 
G37A C50G U69C | 5.92e-05 ± 1.9e-05 | 7.07e-05 ± 2.7e-05 |  | 
G13C C58G | < 1e-05 |  |  | 
C10G A12U U31A A33U G63A | < 1e-05 |  |  | 
G13A G35A G41U C68U | < 1e-05 | < 1e-05 | < 1e-05 | 
G35C U54C G63A | < 1e-05 |  | < 1e-05 | 
U45C A48U U65G | < 1e-05 |  |  | 
G44U U47C | < 1e-05 |  |  | 
G38U G44C U56C U57G C70U | < 1e-05 |  | < 1e-05 | 

— the supplement of paper PMC7125110
